Biological target: T1, full-length human tau (hTau40) (human, UniProt P10636-8 1-441)
T1 construct: plasmid PT7CHT40; The same construct was used as monomer (no inducer) and as filaments or oligomers induced with 75 uM arachidonic acid; No tag removal is described; also called hTau40^m (incubated without inducer, monomeric); hTau40^ARA (incubated with arachidonic acid, filaments and oligomers); source: E. coli BL21, purified (boiled lysate, HIS-select Nickel resin)
Test: ELISA; nondenaturing sandwich ELISA; Tau13 capture antibody, anti-EFhd2 detection antibody; 2 uM hEFhd2 and 2 uM hTau40 co-incubated overnight at room temperature without arachidonic acid (hTau40^m/hEFhd2), then diluted in 1X PBS
Details: both partners purified

T1 sequence (P10636 other isoform, or with tags, fused parts or gaps): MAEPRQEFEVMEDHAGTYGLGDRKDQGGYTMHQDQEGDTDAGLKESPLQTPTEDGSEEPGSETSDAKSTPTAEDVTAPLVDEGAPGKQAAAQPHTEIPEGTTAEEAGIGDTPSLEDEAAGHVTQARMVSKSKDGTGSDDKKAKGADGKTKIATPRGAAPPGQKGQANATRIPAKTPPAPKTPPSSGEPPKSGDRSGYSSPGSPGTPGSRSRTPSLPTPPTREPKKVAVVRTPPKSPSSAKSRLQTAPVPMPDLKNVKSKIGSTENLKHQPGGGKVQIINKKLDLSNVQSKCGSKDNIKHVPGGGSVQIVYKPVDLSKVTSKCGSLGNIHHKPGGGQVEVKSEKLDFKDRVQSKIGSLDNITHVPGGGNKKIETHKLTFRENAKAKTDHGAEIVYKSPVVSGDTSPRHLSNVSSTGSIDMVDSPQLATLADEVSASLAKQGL

B1: recombinant human EFhd2 (natural protein, UniProt Q96C19 1-240, looked up)
chain: MATDELATKLSRRLQMEGEGGGETPEQPGLNGAAAAAAGAPDEAAEALGSADCELSAKLLRRADLNQGIGEPQSPSRRVFNPYTEFKEFSRKQIKDMEKMFKQYDAGRDGFIDLMELKLMMEKLGAPQTHLGLKNMIKEVDEDFDSKLSFREFLLIFRKAAAGELQEDSGLCVLARLSEIDVSSEGVKGAKSFFEAKVQAINVSSRFEEEIKAEQEERKKQAEEMKQRKAAFKELQSTFK
notes: wild type human EFhd2; No tag removal is described; also called hEFhd2; EF-hand domain 2 protein; source: E. coli BL21 (DE3), purified (HIS-select Nickel resin)
binding result: binds
